# Experimental data taken from US7465787.
# Molecular target: biotinylated soluble single-chain Vb8-Va3 TCR (mouse)
# Assay: flow cytometry titration of whole yeast cells with biotinylated scTCR, Scatchard analysis; assumes 100% active scTCR
substance,measurement,value
wt scFv-KJ16 displayed on yeast as Aga2p-HA-scFv-KJ16-c-myc fusion (from UniProt P32781 19-87),Kd,500 nM
